The subject of the data set is Saccharomyces cerevisiae. The experiment in a line: protein stability index of tFT-peptide fusion (C-terminal peptide) (PSI (0-1 scale)); higher = more stable (slower turnover). As to conditions: temperature: 30 C. How it is done: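 MPS profiling in S. cerevisiae of the yeast C-terminome library: the last 12 aa of each annotated ORF are fused to the C-terminus of a sfGFP-mCherry timer, after a GGGS linker. Cells are FACS-sorted into 8 mCherry/sfGFP bins and deep-sequenced. PSI runs from 0 (unstable) to 1 (stable); wild type and das1Δ backgrounds, two technical replicates each.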

Setting [1] is: genetic background: das1 deletion.

± gives the standard deviation of the averaged measurements.

In turn, PKIGILHNYLYL [YFT2 C-terminal 12 aa] displayed a protein stability index under setting [1] of 0.698 ± 0.015 and a protein stability index (genetic background: wild type) of 0.654 ± 0.0094.
For “PLLLVSHLNFAV [YIR020C-B C-terminal 12 aa]”, in that order: 0.673 ± 0.0087 and 0.557 ± 0.033.
The like results for PLVHEVNGNEGK [DUF1 C-terminal 12 aa] were, in that order, 0.68 ± 0.011 and 0.716 ± 0.076.
The like results for PNAIRGIKAKKA [COX7 C-terminal 12 aa] were, in that order, 0.723 ± 0.011 and 0.675 ± 0.046.
In the case of PPVPEVPQEYTQ [TCB3 C-terminal 12 aa], the protein stability index runs as follows: under setting [1], 0.722 ± 0.014; (genetic background: wild type) 0.709 ± 0.041.
For PSLRTRSSYTEE [FLR1 C-terminal 12 aa], in that order: 0.6845 ± 0.0013 and 0.717 ± 0.043.
With PTCETTIDIDRI [ZRG17 C-terminal 12 aa], the protein stability index is, setting by setting: under setting [1], 0.687 ± 0.0087; (genetic background: wild type) 0.65 ± 0.0076.
As for QDGIKEAASALA [INO80 C-terminal 12 aa], the protein stability index reads like this: under setting [1], 0.6794 ± 0.0025; (genetic background: wild type) 0.665 ± 0.04.
For QDKRSSQAIDVL [MMS21 C-terminal 12 aa], in that order: 0.688 ± 0.015 and 0.6684 ± 0.0019.
For QEGNRMCIWMSG [YFL015C C-terminal 12 aa], in that order: 0.7 ± 0.0079 and 0.7 ± 0.011.
The like results for QEGTFKRLALPA [THI11 C-terminal 12 aa] were, in that order, 0.639 ± 0.013 and 0.65426 ± 7.7e-05.
As for QEKEHKKHTVAR [CAJ1 C-terminal 12 aa], the protein stability index came out at 0.694 ± 0.011 under setting [1] and 0.672 ± 0.014 (genetic background: wild type).
QFLFTGRQKNYV [ERP2 C-terminal 12 aa]: the protein stability index is, setting by setting: under setting [1], 0.718 ± 0.017; (genetic background: wild type) 0.718 ± 0.024.
With QFWKNTPKVEQK [HOC1 C-terminal 12 aa], the protein stability index reads like this: under setting [1], 0.71 ± 0.024; (genetic background: wild type) 0.695 ± 0.019.
For QGALDSLLNGDV [DSK2 C-terminal 12 aa], in that order: 0.685 ± 0.03 and 0.701 ± 0.019.
Regarding QGKAFYDRIKDL [RFS1 C-terminal 12 aa], the protein stability index was 0.683 ± 0.013 under setting [1] and 0.255 ± 0.025 (genetic background: wild type).
The like results for QGKVRLWKLNHY [UTP18 C-terminal 12 aa] were, in that order, 0.7 ± 0.021 and 0.616 ± 0.025.
For QIDKYMDLFTEG [PDH1 C-terminal 12 aa], in that order: 0.7253 ± 0.0065 and 0.7354 ± 0.0063.
The like results for QIVEEWIVSTEA [CLB4 C-terminal 12 aa] were, in that order, 0.623 ± 0.012 and 0.63 ± 0.023.
For the sequence QIVNSTPVFTWC [LSB6 C-terminal 12 aa], the protein stability index is, setting by setting: under setting [1], 0.653 ± 0.03; (genetic background: wild type) 0.652 ± 0.034.
In the case of “QKRSCFFLANIH [YKL183C-A C-terminal 12 aa]”, the protein stability index was found to be 0.661 ± 0.01 under setting [1] and 0.608 ± 0.027 (genetic background: wild type).
As for QLENKLEILKQK [SPC19 C-terminal 12 aa], the protein stability index is, setting by setting: under setting [1], 0.699 ± 0.052; (genetic background: wild type) 0.7259 ± 0.0072.
With QLLNLLVKISQL [RFC2 C-terminal 12 aa], the protein stability index runs as follows: under setting [1], 0.677 ± 0.032; (genetic background: wild type) 0.18 ± 0.0089.
For QNLLPAEKFTHN [CTR1 C-terminal 12 aa], in that order: 0.6962 ± 0.0032 and 0.663 ± 0.0075.
For QPKKKRKKSILH [SPP41 C-terminal 12 aa], the protein stability index runs as follows: under setting [1], 0.749 ± 0.061; (genetic background: wild type) 0.672 ± 0.05.
Regarding “QPLLPCFFRRAV [YER147C-A C-terminal 12 aa]”, the protein stability index is 0.691 ± 0.011 under setting [1] and 0.4308 ± 0.0042 (genetic background: wild type).
The like results for QQLQSPTAPPTE [COX14 C-terminal 12 aa] were, in that order, 0.727 ± 0.008 and 0.694 ± 0.038.
QQSESLPQQTTA [PIL1 C-terminal 12 aa]: the protein stability index was found to be 0.7046 ± 0.0038 under setting [1] and 0.737 ± 0.049 (genetic background: wild type).
